Experiments:
[1] = molecular target: SARS-CoV-2 S protein trimer with the K417N/E484K/N501Y mutations (present in the B.1.351 variant) (SARS-CoV-2) (UniProt P0DTC2)
[2] = molecular target: SARS-CoV-2 S protein trimer with the Δ69-70 Y453F mutations (present in the mink variant) (SARS-CoV-2) (UniProt P0DTC2)

In the case of REGN10933 neutralizing antibody, the fold loss in IC80 activity [1] is reported as 61 fold and the fold loss in IC80 activity [2] is reported as 67 fold.
